In doi:10.1101/2022.12.04.519021 one finds stoichiometry N data, which are given here for three substances.

Values joined by “and” are separate entries in the source; they are usually repeats but may differ in a detail not shown here. Equal values may be shown once. Read-outs that look alike come from different tables or passages of the source.

The target of experiment [1] is C-terminally amidated amyloid-beta fragment Aβ1-24-NH2 (human). As to the kind of experiment: high-resolution LC-MS.
Experiment [2] has the same target. The experiment is described as follows: SDS-PAGE and immunoblot. In general terms: In western blotting, separated proteins are transferred to a membrane and probed.
The target of experiment [3] is C-terminally truncated amyloid-beta fragment Aβ1-23 (human). The experiment is described as follows: SDS-PAGE and immunoblot.
The target of experiment [4] is C-terminally truncated amyloid-beta fragment Aβ1-25 (human). The experiment is described as follows: SDS-PAGE and immunoblot.
For experiment [5] the target is unchanged. The experiment is described as follows: SDS-PAGE and immunoblot. This is another data set of the same source.

Usually stoichiometry N stands for the number of molecules, sites or subunits per partner or assembly. As to “C-terminally amidated amyloid-beta fragment Aβ1-24-NH2 (peptide)”, the stoichiometry N in experiment [1] is 3 and 2 and 5; in experiment [2], 2 and 3. Consider “C-terminally truncated amyloid-beta fragment Aβ1-23 (peptide)”, for which the stoichiometry N in experiment [3] was 3 and 2. Regarding “C-terminally truncated amyloid-beta fragment Aβ1-25 (peptide)”, the figures for the stoichiometry N in experiment [4] and in experiment [5] were 3 and 2, respectively.
